Square brackets hold non-standard residues; d marks the D form. Aib = CC(C)(N)C(=O)O
Assays:
[1] = target: human glucagon-like peptide 1 receptor (GLP-1R) (human, UniProt P43220 24-463); assay: cell-based or functional assay
[2] = target: T1, human GLP-2 receptor (hGLP2-R) (human, UniProt O95838 1-553); assay: cell-based or functional assay
T1 sequence (looked up): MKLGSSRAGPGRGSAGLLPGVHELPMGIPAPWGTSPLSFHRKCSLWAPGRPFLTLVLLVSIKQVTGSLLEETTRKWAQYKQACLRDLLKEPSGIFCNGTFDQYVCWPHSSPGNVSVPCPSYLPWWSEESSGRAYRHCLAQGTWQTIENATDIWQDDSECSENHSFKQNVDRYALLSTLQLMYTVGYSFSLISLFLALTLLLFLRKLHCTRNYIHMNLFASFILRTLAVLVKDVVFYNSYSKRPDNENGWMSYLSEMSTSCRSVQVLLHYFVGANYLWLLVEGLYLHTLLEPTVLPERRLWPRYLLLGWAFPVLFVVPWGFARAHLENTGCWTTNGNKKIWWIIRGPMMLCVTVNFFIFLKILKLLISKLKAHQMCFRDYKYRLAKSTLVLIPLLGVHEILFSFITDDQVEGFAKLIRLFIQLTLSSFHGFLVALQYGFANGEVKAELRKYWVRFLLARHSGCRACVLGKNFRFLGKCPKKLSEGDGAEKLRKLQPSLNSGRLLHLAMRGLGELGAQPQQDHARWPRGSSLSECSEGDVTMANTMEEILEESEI

With H-HGEGSFSSELATILDEQAARDFIAWLIQHKITD-NH2 [Compound 40] the “EC50 GLP-1 (nM); cAMP AlphaScreen, HEK293 cells expressing human GLP-1R” value (“EC50 GLP-1 (nM); cAMP AlphaScreen” for short) [1] was 1.4 nM and the “EC50 GLP-2 (nM); cAMP AlphaScreen, HEK293 cells expressing human GLP-2R” value (“EC50 GLP-2 (nM); cAMP AlphaScreen” for short) [2] was 0.05 nM.

H-HGEGTFTSELATILDEQAARDFIAWLIAHKITD-OH [Compound 38] was tested, and the “EC50 GLP-1 (nM); cAMP AlphaScreen” value [1] was 0.008 nM and the “EC50 GLP-2 (nM); cAMP AlphaScreen” value [2] was 0.043 nM.

B1: Compound 37 (peptide)
peptide: H-H[Aib]EGTFTSELATILDEQAARDFINWLKEQKITD-OH
SMILES: CC[C@H](C)[C@H](NC(=O)[C@H](Cc1ccccc1)NC(=O)[C@H](CC(=O)O)NC(=O)[C@H](CCCNC(=N)N)NC(=O)[C@H](C)NC(=O)[C@H](C)NC(=O)[C@H](CCC(N)=O)NC(=O)[C@H](CCC(=O)O)NC(=O)[C@H](CC(=O)O)NC(=O)[C@H](CC(C)C)NC(=O)[C@@H](NC(=O)[C@@H](NC(=O)[C@H](C)NC(=O)[C@H](CC(C)C)NC(=O)[C@H](CCC(=O)O)NC(=O)[C@H](CO)NC(=O)[C@@H](NC(=O)[C@H](Cc1ccccc1)NC(=O)[C@@H](NC(=O)CNC(=O)[C@H](CCC(=O)O)NC(=O)C(C)(C)NC(=O)[C@@H](N)Cc1c[nH]cn1)[C@@H](C)O)[C@@H](C)O)[C@@H](C)O)[C@@H](C)CC)C(=O)N[C@@H](CC(N)=O)C(=O)N[C@@H](Cc1c[nH]c2ccccc12)C(=O)N[C@@H](CC(C)C)C(=O)N[C@@H](CCCCN)C(=O)N[C@@H](CCC(=O)O)C(=O)N[C@@H](CCC(N)=O)C(=O)N[C@@H](CCCCN)C(=O)N[C@H](C(=O)N[C@H](C(=O)N[C@@H](CC(=O)O)C(=O)O)[C@@H](C)O)[C@@H](C)CC
In the case of B1, the “EC50 GLP-1 (nM); cAMP AlphaScreen” value [1] is reported as 0.007 nM and the “EC50 GLP-2 (nM); cAMP AlphaScreen” value [2] is reported as 0.16 nM.

B2: Compound 41 (peptide)
peptide: H-H[Aib]EGSFSSELATILDEQAARDFIAWLIQHKITD-OH
SMILES: CC[C@H](C)[C@H](NC(=O)[C@H](Cc1ccccc1)NC(=O)[C@H](CC(=O)O)NC(=O)[C@H](CCCNC(=N)N)NC(=O)[C@H](C)NC(=O)[C@H](C)NC(=O)[C@H](CCC(N)=O)NC(=O)[C@H](CCC(=O)O)NC(=O)[C@H](CC(=O)O)NC(=O)[C@H](CC(C)C)NC(=O)[C@@H](NC(=O)[C@@H](NC(=O)[C@H](C)NC(=O)[C@H](CC(C)C)NC(=O)[C@H](CCC(=O)O)NC(=O)[C@H](CO)NC(=O)[C@H](CO)NC(=O)[C@H](Cc1ccccc1)NC(=O)[C@H](CO)NC(=O)CNC(=O)[C@H](CCC(=O)O)NC(=O)C(C)(C)NC(=O)[C@@H](N)Cc1c[nH]cn1)[C@@H](C)O)[C@@H](C)CC)C(=O)N[C@@H](C)C(=O)N[C@@H](Cc1c[nH]c2ccccc12)C(=O)N[C@@H](CC(C)C)C(=O)N[C@H](C(=O)N[C@@H](CCC(N)=O)C(=O)N[C@@H](Cc1c[nH]cn1)C(=O)N[C@@H](CCCCN)C(=O)N[C@H](C(=O)N[C@H](C(=O)N[C@@H](CC(=O)O)C(=O)O)[C@@H](C)O)[C@@H](C)CC)[C@@H](C)CC
B2 was tested, and the “EC50 GLP-1 (nM); cAMP AlphaScreen” value [1] was 0.078 nM and the “EC50 GLP-2 (nM); cAMP AlphaScreen” value [2] was 0.026 nM.

B3: Compound 39 (peptide)
peptide: H-H[Aib]EGTFSSELSTILEEQASREFIAWLIAHKITE-OH
SMILES: CC[C@H](C)[C@H](NC(=O)[C@H](CC(C)C)NC(=O)[C@H](Cc1c[nH]c2ccccc12)NC(=O)[C@H](C)NC(=O)[C@@H](NC(=O)[C@H](Cc1ccccc1)NC(=O)[C@H](CCC(=O)O)NC(=O)[C@H](CCCNC(=N)N)NC(=O)[C@H](CO)NC(=O)[C@H](C)NC(=O)[C@H](CCC(N)=O)NC(=O)[C@H](CCC(=O)O)NC(=O)[C@H](CCC(=O)O)NC(=O)[C@H](CC(C)C)NC(=O)[C@@H](NC(=O)[C@@H](NC(=O)[C@H](CO)NC(=O)[C@H](CC(C)C)NC(=O)[C@H](CCC(=O)O)NC(=O)[C@H](CO)NC(=O)[C@H](CO)NC(=O)[C@H](Cc1ccccc1)NC(=O)[C@@H](NC(=O)CNC(=O)[C@H](CCC(=O)O)NC(=O)C(C)(C)NC(=O)[C@@H](N)Cc1c[nH]cn1)[C@@H](C)O)[C@@H](C)O)[C@@H](C)CC)[C@@H](C)CC)C(=O)N[C@@H](C)C(=O)N[C@@H](Cc1c[nH]cn1)C(=O)N[C@@H](CCCCN)C(=O)N[C@H](C(=O)N[C@H](C(=O)N[C@@H](CCC(=O)O)C(=O)O)[C@@H](C)O)[C@@H](C)CC
For B3, the “EC50 GLP-1 (nM); cAMP AlphaScreen” value [1] was 0.03 nM and the “EC50 GLP-2 (nM); cAMP AlphaScreen” value [2] was 0.96 nM.

B4: Compound 36 (peptide)
peptide: H-H[Aib]EGTFTSELATILDEQAARDFINWLKSYKITD-OH
SMILES: CC[C@H](C)[C@H](NC(=O)[C@H](Cc1ccccc1)NC(=O)[C@H](CC(=O)O)NC(=O)[C@H](CCCNC(=N)N)NC(=O)[C@H](C)NC(=O)[C@H](C)NC(=O)[C@H](CCC(N)=O)NC(=O)[C@H](CCC(=O)O)NC(=O)[C@H](CC(=O)O)NC(=O)[C@H](CC(C)C)NC(=O)[C@@H](NC(=O)[C@@H](NC(=O)[C@H](C)NC(=O)[C@H](CC(C)C)NC(=O)[C@H](CCC(=O)O)NC(=O)[C@H](CO)NC(=O)[C@@H](NC(=O)[C@H](Cc1ccccc1)NC(=O)[C@@H](NC(=O)CNC(=O)[C@H](CCC(=O)O)NC(=O)C(C)(C)NC(=O)[C@@H](N)Cc1c[nH]cn1)[C@@H](C)O)[C@@H](C)O)[C@@H](C)O)[C@@H](C)CC)C(=O)N[C@@H](CC(N)=O)C(=O)N[C@@H](Cc1c[nH]c2ccccc12)C(=O)N[C@@H](CC(C)C)C(=O)N[C@@H](CCCCN)C(=O)N[C@@H](CO)C(=O)N[C@@H](Cc1ccc(O)cc1)C(=O)N[C@@H](CCCCN)C(=O)N[C@H](C(=O)N[C@H](C(=O)N[C@@H](CC(=O)O)C(=O)O)[C@@H](C)O)[C@@H](C)CC
B4 was tested, and the “EC50 GLP-1 (nM); cAMP AlphaScreen” value [1] was 0.007 nM and the “EC50 GLP-2 (nM); cAMP AlphaScreen” value [2] was 0.11 nM.

Source: US20190338009A1 (ZEALAND PHARMA A S, published 2019)
